Where a chain is given by its changes, count along the chain named. Names may count otherwise.
T1: EsCas13d, nuclease-dead (Eubacterium siraeum, UniProt B0MS50, R295A;H300A;R849A;H854A)
T1 sequence: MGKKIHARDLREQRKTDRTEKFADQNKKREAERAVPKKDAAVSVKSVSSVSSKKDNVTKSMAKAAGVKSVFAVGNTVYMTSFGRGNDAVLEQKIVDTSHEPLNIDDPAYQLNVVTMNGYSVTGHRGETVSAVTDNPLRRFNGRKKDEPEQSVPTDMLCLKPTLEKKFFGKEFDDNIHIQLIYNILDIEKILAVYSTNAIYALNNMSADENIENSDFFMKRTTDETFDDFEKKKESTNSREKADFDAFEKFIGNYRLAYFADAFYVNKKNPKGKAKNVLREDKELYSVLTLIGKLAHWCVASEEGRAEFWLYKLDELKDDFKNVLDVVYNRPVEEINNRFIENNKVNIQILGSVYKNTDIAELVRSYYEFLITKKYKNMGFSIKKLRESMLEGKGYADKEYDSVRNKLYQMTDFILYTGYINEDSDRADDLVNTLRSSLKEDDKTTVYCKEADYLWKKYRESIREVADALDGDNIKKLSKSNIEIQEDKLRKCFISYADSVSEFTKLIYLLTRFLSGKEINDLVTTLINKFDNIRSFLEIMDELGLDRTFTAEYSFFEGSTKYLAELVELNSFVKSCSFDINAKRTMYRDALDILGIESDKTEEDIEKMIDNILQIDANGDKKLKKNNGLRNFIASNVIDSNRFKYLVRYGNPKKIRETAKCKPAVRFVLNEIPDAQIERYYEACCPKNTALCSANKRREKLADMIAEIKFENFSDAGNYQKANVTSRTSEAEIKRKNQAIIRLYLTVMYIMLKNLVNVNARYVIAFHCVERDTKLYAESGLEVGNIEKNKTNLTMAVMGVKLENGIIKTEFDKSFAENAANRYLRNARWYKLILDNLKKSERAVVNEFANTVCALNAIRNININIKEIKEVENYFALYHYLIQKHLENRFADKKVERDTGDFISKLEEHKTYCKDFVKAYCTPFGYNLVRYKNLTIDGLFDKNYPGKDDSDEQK

B1: target 2 MT 5'PFS GAG 3'PFS UAG (mixed)
RNA 1: CACCCGUGCAAAAUUGCAGGGGUCUAAAACCUUCUCCAAAUUGUUUCAUCCU
RNA 2: GGGAAUGGAUCCACAUCUACGAAUUCGAGAGGAUGAAACAAUUUGGAGAAGUAGAGAUCGGAAGAGCACACGU
B2: target 2 MT 5'PFS AGC 3'PFS AGG (mixed)
RNA 1: B1 RNA 1
RNA 2: B1 RNA 2 with G27A, A28G, G29C, U52A, A53G
B3: target 2 MT 5'PFS UCA 3'PFS UCA (mixed)
RNA 1: B1 RNA 1
RNA 2: B1 RNA 2 with G27U, A28C, G29A, A53C, G54A
B4: target 2 MT 5'PFS GCU 3'PFS AUU (mixed)
RNA 1: B1 RNA 1
RNA 2: B1 RNA 2 with A28C, G29U, U52A, A53U, G54U
B5: target 2 MT 5'PFS AUG 3'PFS CGA (mixed)
RNA 1: B1 RNA 1
RNA 2: B1 RNA 2 with G27A, A28U, U52C, A53G, G54A
B6: target 2 MT 5'PFS AGC 3'PFS UAC (mixed)
RNA 1: B1 RNA 1
RNA 2: B1 RNA 2 with G27A, A28G, G29C, G54C
B7: target 2 MT 5'PFS AGC 3'PFS AGC (mixed)
RNA 1: B1 RNA 1
RNA 2: B1 RNA 2 with G27A, A28G, G29C, U52A, A53G, G54C
B8: target 2 MT 5'PFS GCG 3'PFS CAG (mixed)
RNA 1: B1 RNA 1
RNA 2: B1 RNA 2 with A28C, U52C
B9: target 2 MT 5'PFS GGG 3'PFS AAA (mixed)
RNA 1: B1 RNA 1
RNA 2: B1 RNA 2 with A28G, U52A, G54A
B10: target 2 MT 5'PFS AGC 3'PFS UAA (mixed)
RNA 1: B1 RNA 1
RNA 2: B1 RNA 2 with G27A, A28G, G29C, G54A
B11: target 2 MT 5'PFS CUC 3'PFS UAG (mixed)
RNA 1: B1 RNA 1
RNA 2: B1 RNA 2 with G27C, A28U, G29C
B12: target 2 MT 5'PFS AGC 3'PFS AGA (mixed)
RNA 1: B1 RNA 1
RNA 2: B1 RNA 2 with G27A, A28G, G29C, U52A, A53G, G54A
B13: target 2 MT 5'PFS GGG 3'PFS AAC (mixed)
RNA 1: B1 RNA 1
RNA 2: B1 RNA 2 with A28G, U52A, G54C
B14: target 2 MT 5'PFS GCU 3'PFS AUA (mixed)
RNA 1: B1 RNA 1
RNA 2: B1 RNA 2 with A28C, G29U, U52A, A53U, G54A
B15: target 2 MT 5'PFS GUU 3'PFS AGG (mixed)
RNA 1: B1 RNA 1
RNA 2: B1 RNA 2 with A28U, G29U, U52A, A53G
B16: target 2 MT 5'PFS GAG 3'PFS UAA (mixed)
RNA 1: B1 RNA 1
RNA 2: B1 RNA 2 with G54A
B17: target 2 MT 5'PFS CGG 3'PFS UAU (mixed)
RNA 1: B1 RNA 1
RNA 2: B1 RNA 2 with G27C, A28G, G54U
B18: target 2 MT 5'PFS GAG 3'PFS UUA (mixed)
RNA 1: B1 RNA 1
RNA 2: B1 RNA 2 with A53U, G54A
B19: target 2 MT 5'PFS GCU 3'PFS AUC (mixed)
RNA 1: B1 RNA 1
RNA 2: B1 RNA 2 with A28C, G29U, U52A, A53U, G54C
B20: target 2 MT 5'PFS CGG 3'PFS UAC (mixed)
RNA 1: B1 RNA 1
RNA 2: B1 RNA 2 with G27C, A28G, G54C
B21: target 2 MT 5'PFS GAG 3'PFS UUG (mixed)
RNA 1: B1 RNA 1
RNA 2: B1 RNA 2 with A53U
B22: target 2 MT 5'PFS GAG 3'PFS UAC (mixed)
RNA 1: B1 RNA 1
RNA 2: B1 RNA 2 with G54C
B23: target 2 MT 5'PFS GUU 3'PFS AGA (mixed)
RNA 1: B1 RNA 1
RNA 2: B1 RNA 2 with A28U, G29U, U52A, A53G, G54A
B24: target 2 MT 5'PFS GGG 3'PFS AAG (mixed)
RNA 1: B1 RNA 1
RNA 2: B1 RNA 2 with A28G, U52A
B25: target 2 MT 5'PFS CUC 3'PFS UAC (mixed)
RNA 1: B1 RNA 1
RNA 2: B1 RNA 2 with G27C, A28U, G29C, G54C
B26: target 2 MT 5'PFS GCG 3'PFS CAA (mixed)
RNA 1: B1 RNA 1
RNA 2: B1 RNA 2 with A28C, U52C, G54A
B27: target 2 MT 5'PFS GUU 3'PFS AGU (mixed)
RNA 1: B1 RNA 1
RNA 2: B1 RNA 2 with A28U, G29U, U52A, A53G, G54U
B28: target 2 MT 5'PFS GGG 3'PFS AAU (mixed)
RNA 1: B1 RNA 1
RNA 2: B1 RNA 2 with A28G, U52A, G54U
B29: target 2 MT 5'PFS CGG 3'PFS UAA (mixed)
RNA 1: B1 RNA 1
RNA 2: B1 RNA 2 with G27C, A28G, G54A
B30: target 2 MT 5'PFS GCU 3'PFS AUG (mixed)
RNA 1: B1 RNA 1
RNA 2: B1 RNA 2 with A28C, G29U, U52A, A53U
B31: target 2 MT 5'PFS AGC 3'PFS AGU (mixed)
RNA 1: B1 RNA 1
RNA 2: B1 RNA 2 with G27A, A28G, G29C, U52A, A53G, G54U
B32: target 2 MT 5'PFS CUC 3'PFS UAA (mixed)
RNA 1: B1 RNA 1
RNA 2: B1 RNA 2 with G27C, A28U, G29C, G54A
B33: target 2 MT 5'PFS CUC 3'PFS UAU (mixed)
RNA 1: B1 RNA 1
RNA 2: B1 RNA 2 with G27C, A28U, G29C, G54U
B34: target 2 MT 5'PFS AGC 3'PFS UAU (mixed)
RNA 1: B1 RNA 1
RNA 2: B1 RNA 2 with G27A, A28G, G29C, G54U
B35: target 1 insG 3' of 1,insG 3' of 1 (mixed)
RNA 1: CACCCGUGCAAAAAUGCAGGGGUCUAAAACUGAGCGGAUAACCUCUCUAUGG
RNA 2: GGGAAUGGAUCCACAUCUACGAAUUCGUACCAUAGAGAGGUUAUCCGCUCAGGCCGAGAUCGGAAGAGCACACGU
B36: target 1 C2A,C4G (mixed)
RNA 1: B35 RNA 1
RNA 2: GGGAAUGGAUCCACAUCUACGAAUUCGUACCAUAGAGAGGUUAUCCGGUAACCGAGAUCGGAAGAGCACACGU
B37: target 1 insG 3' of 4,insU 3' of 1 (mixed)
RNA 1: B35 RNA 1
RNA 2: B35 RNA 2 with U49G, C50U, A51C, G52A, G53U
B38: target 1 insC 3' of 18,insA 3' of 10 (mixed)
RNA 1: B35 RNA 1
RNA 2: GGGAAUGGAUCCACAUCUACGAAUUCGUACCAUACGAGAGGUUAAUCCGCUCACCGAGAUCGGAAGAGCACACGU

target: T1, EsCas13d, nuclease-dead; experiment: crRNA (strand 1, pre-loaded); Mg2+; 40 mM Tris-HCl pH 7.5, 150 mM NaCl, 6 mM MgCl2, 1 mM DTT, 0.1% Tween-20, 0.2 mg/ml BSA; 25 C; 10 min per concentration, then washed; conditions: tags: His6-TwinStrep-SUMO cleaved; N-terminal SNAP kept (SNAP-Surface 488); label: 3' end held by stalled T7 RNA polymerase

Row | Binder | Kd [nM]
1 | B1 | 6.2 ± 0.7
2 | B2 | 7.1 ± 1
3 | B3 | 4.3 ± 0.7
4 | B4 | 15 ± 4
5 | B5 | 9.4 ± 1
6 | B6 | 10.5 ± 2.3
7 | B7 | 7.1 ± 1.6
8 | B8 | 9.4 ± 0.9
9 | B9 | 6.7 ± 0.9
10 | B10 | 8.7 ± 1.7
11 | B11 | 3.4 ± 0.6
12 | B12 | 7.1 ± 1
13 | B13 | 8.7 ± 1
14 | B14 | 8.9 ± 1.1
15 | B15 | 12.5 ± 0.9
16 | B16 | 5.1 ± 0.7
17 | B17 | 5 ± 0.8
18 | B18 | 14.2 ± 2.2
19 | B19 | 14.5 ± 2.8

Row | Binder | Kd [nM]
20 | B20 | 5.3 ± 0.6
21 | B21 | 8.5 ± 1
22 | B22 | 10.6 ± 1.7
23 | B23 | 10 ± 1.1
24 | B24 | 8.9 ± 1
25 | B25 | 2.32 ± 0.23
26 | B26 | 9.7 ± 1.9
27 | B27 | 9.9 ± 0.8
28 | B28 | 6.2 ± 0.6
29 | B29 | 4.4 ± 0.7
30 | B30 | 22 ± 6
31 | B31 | 10.2 ± 1.6
32 | B32 | 2.05 ± 0.35
33 | B33 | 1.99 ± 0.13
34 | B34 | 8.9 ± 1.3
35 | B35 | 8.6 ± 0.5
36 | B36 | 12 ± 0.6
37 | B37 | 9.1 ± 0.4
38 | B38 | 52 ± 4

Reference: paper PMC10786891, “Massively parallel profiling of RNA-targeting CRISPR-Cas13d”
